Drawing on article PMC7567440 (2020), this text covers koff for one molecule.

In the assay the target is recombinant flagellin of Bacillus cereus HN001 (WR52_08290) (Bacillus cereus HN001). Nature of the assay: BLI.

A word on the koff: it is a measure of how fast the partners let go of each other.

B1: pigeon ovomucoid (natural protein)
chain: VEVDCSRYHNTTNVEGREGLPCTKDFNPICGSDGVTYDNECLLCSYNREYGTNVSKDHDGQCREVIPVDCSKYPNVTNEEGRVALFCTENLRLVCGADGVTYDNECLLCARSLERGTRAGKKYDGECRREITTVDCSDHPQHACTLNYLPVCGSDSRTYSNRCNFCNAVVHSNGTLTLNYFGEC
modifications: terminal Galα1-4Gal residues; biotin (biotinylated POVO in the BLI assay)
Regarding B1, the off-rate constant (koff) amounted to 0.000376 s⁻¹.
